From patent publication US20240287172A1 (SCIRHOM, published 2024)
Changes are numbered by the printed parent chain.

T1: hiR2-FL-K536-T7 (deletion of K536) (human, UniProt Q6PJF5 1-856)
T1 construct: single amino acid deletion
T1 sequence: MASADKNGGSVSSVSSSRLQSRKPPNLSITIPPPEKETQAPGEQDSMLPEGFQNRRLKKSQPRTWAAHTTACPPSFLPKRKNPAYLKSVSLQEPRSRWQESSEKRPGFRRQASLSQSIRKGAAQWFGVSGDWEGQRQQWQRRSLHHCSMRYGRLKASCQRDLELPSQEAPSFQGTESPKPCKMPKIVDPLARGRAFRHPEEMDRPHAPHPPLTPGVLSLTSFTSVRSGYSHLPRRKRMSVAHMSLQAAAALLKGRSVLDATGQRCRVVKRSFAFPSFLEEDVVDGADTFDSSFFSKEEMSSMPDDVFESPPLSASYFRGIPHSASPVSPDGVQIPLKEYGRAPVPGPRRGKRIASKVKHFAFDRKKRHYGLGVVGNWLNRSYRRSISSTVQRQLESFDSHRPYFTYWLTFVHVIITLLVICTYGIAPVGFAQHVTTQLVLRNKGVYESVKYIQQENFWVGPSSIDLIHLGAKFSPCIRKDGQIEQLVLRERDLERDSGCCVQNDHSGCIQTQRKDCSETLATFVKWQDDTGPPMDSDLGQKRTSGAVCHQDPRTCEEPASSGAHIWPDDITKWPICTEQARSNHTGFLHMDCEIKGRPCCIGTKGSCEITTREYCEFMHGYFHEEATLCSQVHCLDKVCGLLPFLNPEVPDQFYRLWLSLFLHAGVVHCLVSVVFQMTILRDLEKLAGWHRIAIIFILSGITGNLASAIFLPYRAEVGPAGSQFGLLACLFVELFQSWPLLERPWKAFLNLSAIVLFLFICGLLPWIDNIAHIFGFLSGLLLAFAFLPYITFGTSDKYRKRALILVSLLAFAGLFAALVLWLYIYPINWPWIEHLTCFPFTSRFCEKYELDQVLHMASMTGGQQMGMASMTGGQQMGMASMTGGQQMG

B1: antibody 34 (antibody, V domains shown)
VH: QVTLKESGPGILQPSQTLSLTCSFSGFSLSTFSLGVGWIRQSSGKGLEWLAHIWWDDEKYYNPALKSRLTISKDTSKNQVFLKIANVDAADTATYYCARAYYSKSYYALDYWGQGTSVTVSS
VL: DIQMTQSPSSLSASLGERVSLTCRASQEISGYLSWLQQKPDGTIKRLIYAASTLDSGVPKRFSGSRSGSDYSLAISSLESEDFADYYCLQYANFPFTFGSGTKLEIK
notes: mouse IgG, kappa light chain; also called clone #34; purified antibody 34
B2: antibody 5 (antibody, V domains shown)
VH: QVTLKESGPGILQPSQTLSLTCSFSGFSLSTFGMGVGWIRQPSGKGLEWLAHIWWDDEKYYNSALKSRLTISKATSKNQAFLKIANVDTADTATYYCARISNYGSNYWYFNVWGTGTTVTVSS
VL: QVVLTQSPALMSASPGEKVTMTCSAGSSVSCMYWYQQKPGSSPRVLIYDTSNLASGVPARFTGSGSGTSYSLTISRMEAEDAASYYCQQWNSYPLTFGAGTKLELK
notes: mouse IgG, kappa light chain; also called clone #5; purified antibody 5
B3: antibody 43 (antibody, V domains shown)
VH: B2 VH with T3A, P42S, H52N, E58D, S63P, A74D, T75A, S101G, N111D
VL: QIVLTQSPAIMSASPGERVTMTCSANSRISYMYWYQQKPGSSPRLLIYDTSNLASGVPVRFSGSGSGTSYSLTISRMEAEDAATYNCQQWSSYPLTFGAGTKLELK
notes: mouse IgG, kappa light chain; also called clone #43; purified antibody 43
B4: antibody 42 (antibody, V domains shown)
VH: B2 VH with F24L, M34R, S63P, A74D, A80V, K83R, S101Q, N111D
VL: B3 VL with Q1L, R18K, S24G, N26T, Y33F, L45V, M77V, A82V, N86Y, S91N
notes: mouse IgG, kappa light chain; also called clone #42; purified antibody 42
B5: antibody 44 (antibody, V domains shown)
VH: B2 VH with G44E, E58D, S63P, A74D, A80I, A85T, D91E, A98S, S101G, N111D
VL: QIVLTQSPAVMSASPGEKVTMTCTASSSVYYMYWYQQTPGSSPRLLIYDTSNLASGVPVRFSGSGSGTSYSLTISRMEAEDAATYYCQQWNTYPLTFGAGTKLELK
notes: mouse IgG, kappa light chain; also called clone #44; purified antibody 44
B6: antibody 22 (antibody, V domains shown)
VH: B2 VH with A80V
VL: B2 VL with C31Y, S84T
notes: mouse IgG, kappa light chain; also called clone #22; purified antibody 22
B7: antibody 16 (antibody, V domains shown)
VH: QVTLKESGPGILQPSQTLSLTCSFSGFSLSTFALGVGWIRQPSGRGLEWLAHIWWDDDKYYNPALKSRLTISKDTSKNHVFLKIANVDTADTATYYCARITTYYYGMDYWGQGTSVTVSS
VL: DIVLSQSPATLSVTPGDSVSLFCRASQSIGNHLHWYQQESHASPRLLIKYASQSISGIPSRFSGSGSGTDFTLSINSVETEDFGMYFCQQSYNWPLTFGAGTKLELK
notes: mouse IgG, kappa light chain; also called clone #16; purified antibody 16
B8: antibody 3 (antibody, V domains shown)
VH: QVTLKESGPGILQPSQTLSLTCSFSGFSLTTFAMGIGWVRQPSGKGLEWLAHIWWDGEKYNNPVLKSRLTISKDTSKNQVFLRIANVDTPDTATYYCARISSIYYIIDNWGQGTSVTVSS
VL: B7 VL with S5T, D17H, F22S, G30S, H32N, Q38K, E39K, A42E, A51V
notes: mouse IgG, kappa light chain; also called clone #3; purified antibody 3

Molecular target: T1, hiR2-FL-K536-T7 (deletion of K536)
Assay: FACS, MEF-DKO cells, 3 µg/ml

Binder	loss of binding vs wild type [%]
B1	≥ 95
B2	≥ 95
B3	≥ 95
B4	≥ 95
B5	≥ 95
B6	≥ 95
B7	≥ 95
B8	≥ 95
